# Measurements: FireProtDB (doi:10.1093/protein/11.3.213)
# Where “and” joins values, the source holds several entries; their conditions need not be identical. Equal entries are not always repeated.
# B1: Endolysin, P03706 (parent)
# chain: MVEINNQRKAFLDMLAWSEGTDNGRQKTRNHGYDVIVGGELFTDYSDHPRKLVTLNPKLKSTGAGRYQLLSRWWDAYRKQLGLKDFSPKSQDAVALQQIKERGALPMIDRGDIRQAIDRCSNIWASLPGAGYGQFEHKADSLIAKFKEAGGTVREIDV
# Variants of: B1
# Conditions: Escherichia phage lambda; pH 4; Thermal; Fluorescence; phosphate 0.1 M; reversible: yes; structure 1AM7; whole UniProt chain shown
Variant,Tm,unfolding enthalpy (calorimetric),unfolding enthalpy (van 't Hoff)
H31N H137N,24.5 °C and 26 °C,40.3 kcal/mol and 43.3 kcal/mol,29 kcal/mol and 35.4 kcal/mol

# Same assay, conditions: Escherichia phage lambda; pH 4.5; Thermal; Fluorescence; phosphate 0.1 M; reversible: yes; structure 1AM7; whole UniProt chain shown
Variant,Tm,unfolding enthalpy (calorimetric),unfolding enthalpy (van 't Hoff)
H31N H137N,39.3 °C,69.9 kcal/mol,71 kcal/mol

# Same assay, conditions: Escherichia phage lambda; pH 5.5; Thermal; Fluorescence; phosphate 0.1 M; reversible: yes; structure 1AM7; whole UniProt chain shown
Variant,Tm,unfolding enthalpy (calorimetric),unfolding enthalpy (van 't Hoff)
H31N H137N,51.1 °C,93.5 kcal/mol,107 kcal/mol

# Same assay, conditions: Escherichia phage lambda; pH 6; Thermal; Fluorescence; phosphate 0.1 M; reversible: yes; structure 1AM7; whole UniProt chain shown
Variant,Tm,unfolding enthalpy (calorimetric),unfolding enthalpy (van 't Hoff)
H31N H137N,52.7 °C,96.7 kcal/mol,93 kcal/mol

# Same assay, conditions: Escherichia phage lambda; pH 6.5; Thermal; Fluorescence; phosphate 0.1 M; reversible: yes; structure 1AM7; whole UniProt chain shown
Variant,Tm,unfolding enthalpy (calorimetric),unfolding enthalpy (van 't Hoff)
H31N H137N,53.6 °C,98.5 kcal/mol,111 kcal/mol

# Same assay, conditions: Escherichia phage lambda; pH 6.57; Thermal; Fluorescence; phosphate 0.1 M; reversible: yes; structure 1AM7; whole UniProt chain shown
Variant,Tm,unfolding enthalpy (calorimetric),unfolding enthalpy (van 't Hoff)
H31N H137N,50.8 °C,92.9 kcal/mol,100 kcal/mol

# Same assay, conditions: Escherichia phage lambda; pH 7.07; Thermal; Fluorescence; phosphate 0.1 M; reversible: yes; structure 1AM7; whole UniProt chain shown
Variant,Tm,unfolding enthalpy (calorimetric),unfolding enthalpy (van 't Hoff)
H31N H137N,51.1 °C,93.5 kcal/mol,105 kcal/mol

# Same assay, conditions: Escherichia phage lambda; pH 7.57; Thermal; Fluorescence; phosphate 0.1 M; reversible: yes; structure 1AM7; whole UniProt chain shown
Variant,Tm,unfolding enthalpy (calorimetric),unfolding enthalpy (van 't Hoff)
H31N H137N,51 °C,93.3 kcal/mol,101 kcal/mol

# Same assay, conditions: Escherichia phage lambda; pH 8.07; Thermal; Fluorescence; phosphate 0.1 M; reversible: yes; structure 1AM7; whole UniProt chain shown
Variant,Tm,unfolding enthalpy (calorimetric),unfolding enthalpy (van 't Hoff)
H31N H137N,50.1 °C,91.5 kcal/mol,91 kcal/mol
